Source: the supplement of paper PMC12764529
± gives the half width of the 95% confidence interval.

How the values were obtained:
[1] = folding stability dG unfold from chymotrypsin proteolysis; higher = more stable
Outline: (§1)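 Sequencing followed digestion of designed mini-proteins with trypsin and chymotrypsin, each at 11 concentrations in threefold dilutions together with a no-protease condition. The mini-proteins were under 80 residues, had no cysteine, sat in a PA-tagged cDNA display construct, and were kept only if AlphaFold2 dimer inter-PAE was above 15. From the counts, Bayesian fitting gave K50, and unfolding free energy was derived against a sequence-predicted unfolded-state K50 and a shared folded-state K50, per protease or combined.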

[2] = folding stability dG unfold from trypsin proteolysis; higher = more stable
Outline: as §1

[3] = folding stability dG unfold (combined trypsin and chymotrypsin); higher = more stable
Outline: as §1

For “SAGGSAGGSAGLAEKLRDEIRESIKGPDGLEVPDDVELLSIDVPEDSAFVEVRFPADLPVSAGGSAGGSAGG [r17_519_TrMRF]”, the “folding stability dG unfold” value [1] was 0.973 ± 0.0837 kJ/mol, the “folding stability dG unfold” value [2] was 1.83 ± 0.105 kJ/mol and the “folding stability dG unfold” value [3] was 1.52 ± 0.372 kJ/mol.
For “SAGGSAGGSAGMKVVVELEVTFDSEEEAEAVAKAIAEELGSEDVVVKVIRKPVELGPGLKSAGGSAGGSAGG [r17_285_JUSTAS]”, the “folding stability dG unfold” value [1] was 3.73 ± 0.13 kJ/mol, the “folding stability dG unfold” value [2] was 0.373 ± 0.255 kJ/mol and the “folding stability dG unfold” value [3] was 2.74 ± 0.213 kJ/mol.
For “SAGMMEIVEVKEVDGRLELKIKDKETGEEFTITVERKEDGELKVTIEMSDEAAERLRELFPEIDRLEIKSAG [r5_933_TrROS_Hall]”, the “folding stability dG unfold” value [1] was 14.1 ± 0.795 kJ/mol, the “folding stability dG unfold” value [2] was 9.18 ± 0.289 kJ/mol and the “folding stability dG unfold” value [3] was 12.3 ± 0.406 kJ/mol.
With “SEKLTEEEVEKLAEELAKELEEETGKKVTVEVEVEKVEVEKDGEKEEVEVVRIKITVDPETGEVTIEVEPSA [r9_9_TrROS_Hall]” the “folding stability dG unfold” value [1] was 6 ± 0.837 kJ/mol, the “folding stability dG unfold” value [2] was 6.25 ± 0.46 kJ/mol and the “folding stability dG unfold” value [3] was 6.51 ± 1.88 kJ/mol.
In the case of “SAGGSAGGEIKAKVPYEKYPKYYKVKVEIYDPNTKKKIEYEALFPKGTKISAEEIAKKIVKKIKSAGGSAGG [r6_233_TrMRF]”, the “folding stability dG unfold” value [1] is reported as 6.43 ± 0.356 kJ/mol, the “folding stability dG unfold” value [2] is reported as 3.66 ± 0.36 kJ/mol and the “folding stability dG unfold” value [3] is reported as 5.28 ± 1 kJ/mol.
With “SAGGSAGGSEPEEPEYILIERVEAGEKPKITITFKDGTKKEIEVKPGETILIKVPKDAKIEVESAGGSAGGS [r12_553_TrROS_Hall]” the “folding stability dG unfold” value [1] was 4.6 ± 0.544 kJ/mol, the “folding stability dG unfold” value [2] was 4.11 ± 0.28 kJ/mol and the “folding stability dG unfold” value [3] was 3.93 ± 0.837 kJ/mol.
In the case of “KTITIVIKNEDGELYVIKIKLKNGEEKEIVFKSLEELKNAIAKELGLSKEKIEIVEIKPLSPEELKELEKKS [r1_119_TrROS_Hall]”, the “folding stability dG unfold” value [1] is reported as 16.6 ± 0.586 kJ/mol, the “folding stability dG unfold” value [2] is reported as 8.33 ± 0.544 kJ/mol and the “folding stability dG unfold” value [3] is reported as 13.9 ± 1.46 kJ/mol.
For “MVITPEEVAEMLGVSPEELAALPLEELAQRILEVLPAGVATSVTVERDPARGTTTITVTLSDGKNIDVTLES [r1_340_JUSTAS]”, the “folding stability dG unfold” value [1] was 19.3 ± 1.97 kJ/mol, the “folding stability dG unfold” value [2] was 18.5 ± 1.38 kJ/mol and the “folding stability dG unfold” value [3] was > 25.1 kJ/mol.
For “SAGGSAGGAPQGSTSSLTDPSTGLRYASTNPPGTSSSFTFPPSVSPEEVAARLRAQGVAGLNLSSAGGSAGG [r6_83_JUSTAS]”, the “folding stability dG unfold” value [1] was 1.42 ± 0.305 kJ/mol, the “folding stability dG unfold” value [2] was -3.39 ± 1.46 kJ/mol and the “folding stability dG unfold” value [3] was 0.284 ± 0.339 kJ/mol.
For “SAGGPPIKKAEIKEIYPEKGIINAIIELEDIPKPYEAIGIITDEKEGIIFVEIINPEGGPPLYFTIKASAGG [r13_337_TrMRF]”, the “folding stability dG unfold” value [1] was 4.55 ± 0.418 kJ/mol, the “folding stability dG unfold” value [2] was 3.88 ± 0.138 kJ/mol and the “folding stability dG unfold” value [3] was 4.07 ± 0.92 kJ/mol.
For “SAGSMLFDPNGVLREVSVTPDPSTGTTVTTTLVQWPVDDGNGNSVLERITTTTSPSGTVTTSTEVRPAPSAG [r5_303_JUSTAS]”, the “folding stability dG unfold” value [1] was 0.369 ± 0.142 kJ/mol, the “folding stability dG unfold” value [2] was 0.763 ± 0.113 kJ/mol and the “folding stability dG unfold” value [3] was 0.577 ± 0.356 kJ/mol.
For “SADHKFEIDINVFEHDGWRYIMIPVKYDDPQDVDEAAEKILREFGIPPNFNVNVMRSPNEVWINIRIPYSAG [r14_804_TrROS]”, the “folding stability dG unfold” value [1] was 11.9 ± 0.322 kJ/mol, the “folding stability dG unfold” value [2] was 8.71 ± 0.251 kJ/mol and the “folding stability dG unfold” value [3] was 10.6 ± 0.628 kJ/mol.
In the case of “SAGGSAGGSAGGSKKTIKVRIKIEVDGKTYEITVELPEEGMSLEELLKKFPNAKITEIESAGGSAGGSAGGS [r4_278_TrROS_Hall]”, the “folding stability dG unfold” value [1] is reported as 12.9 ± 0.711 kJ/mol, the “folding stability dG unfold” value [2] is reported as 13.2 ± 1.09 kJ/mol and the “folding stability dG unfold” value [3] is reported as 13.5 ± 0.962 kJ/mol.
With “SAGGALANLSPEEIAALLESQGYEVTILEVEEKPGERIVKIRVTVKREDGTVESVEEIELTLPAPDKLSAGG [r13_566_JUSTAS]” the “folding stability dG unfold” value [1] was 8.59 ± 0.126 kJ/mol, the “folding stability dG unfold” value [2] was 15.5 ± 0.46 kJ/mol and the “folding stability dG unfold” value [3] was 11.8 ± 0.397 kJ/mol.
In the case of “SAGGSELKPGDLVEVKVTVEFDEETGKATVEVEFNGKKLTVEVELEENQPPTVEVTLLVRIDKIEPSAGGSA [r2_113_TrROS_Hall]”, the “folding stability dG unfold” value [1] is reported as 10.4 ± 0.418 kJ/mol, the “folding stability dG unfold” value [2] is reported as 9.88 ± 0.711 kJ/mol and the “folding stability dG unfold” value [3] is reported as 10.3 ± 0.628 kJ/mol.
With “SAGGETKTITIKVDGKLVTITVKKNKNGEELVTVKVYENGKLVEEVTMSKDELEELAKKLGLSVEELKSAGG [r13_108_TrROS_Hall]” the “folding stability dG unfold” value [1] was 16 ± 0.213 kJ/mol, the “folding stability dG unfold” value [2] was 13.7 ± 0.381 kJ/mol and the “folding stability dG unfold” value [3] was 15.2 ± 0.418 kJ/mol.
With “SAGGSAGGSAGGKPKVIVIEGMSLEEIKALLAELPEDVTIVVRLPDGSTRTLTVRLPEPSAGGSAGGSAGGS [r10_514_TrROS_Hall]” the “folding stability dG unfold” value [1] was 4.73 ± 0.322 kJ/mol, the “folding stability dG unfold” value [2] was 7.46 ± 0.322 kJ/mol and the “folding stability dG unfold” value [3] was 6.2 ± 0.397 kJ/mol.
For “SAGGSAGGSAGGSKKKIKIYIENENGEKKTIEIEVEGDIDEIAKELAKKYNVKIVKIEPSAGGSAGGSAGGS [r4_412_TrROS_Hall]”, the “folding stability dG unfold” value [1] was 13.2 ± 0.339 kJ/mol, the “folding stability dG unfold” value [2] was 11.6 ± 0.46 kJ/mol and the “folding stability dG unfold” value [3] was 12.7 ± 0.209 kJ/mol.
In the case of “SAGGSAGGMPVEIEILTPDNLLPTFTIPDPEEAEKIKSVEVFGDRFIKITLGDKEIVIEVYPDNSAGGSAGG [r6_206_TrMRF]”, the “folding stability dG unfold” value [1] is reported as 2.34 ± 0.264 kJ/mol, the “folding stability dG unfold” value [2] is reported as 6.2 ± 0.255 kJ/mol and the “folding stability dG unfold” value [3] is reported as 4.23 ± 0.502 kJ/mol.
In the case of “SAGGSAGGETITVKVKIKNEDGEEIEVEAEVTKNKDGSYTITIKNKETGETKVVPNATIEEVEPSAGGSAGG [r6_254_TrROS_Hall]”, the “folding stability dG unfold” value [1] is reported as 9.17 ± 0.753 kJ/mol, the “folding stability dG unfold” value [2] is reported as 6.65 ± 0.502 kJ/mol and the “folding stability dG unfold” value [3] is reported as 8.06 ± 0.753 kJ/mol.
In the case of “SAGGSAGGSAGGTKTYTITNEDGSKITIEEVDGKYVITYPNGEKKEIEGMTLEELLKALSAGGSAGGSAGGS [r10_569_TrROS_Hall]”, the “folding stability dG unfold” value [1] is reported as 17.8 ± 0.879 kJ/mol, the “folding stability dG unfold” value [2] is reported as 17.6 ± 2.43 kJ/mol and the “folding stability dG unfold” value [3] is reported as 18.2 ± 0.753 kJ/mol.
